Patent US20120207676 (published 2012)

Tests used:
[1] = target: T1, Neurotensin receptor NTS1 (HT29 cells/membranes) (human, UniProt P30989); assay: competition, HT29 cells
[2] = target: T1, Neurotensin receptor NTS1 (HT29 …); assay: competition, HT29 membranes

T1 sequence (P30989 whole entry): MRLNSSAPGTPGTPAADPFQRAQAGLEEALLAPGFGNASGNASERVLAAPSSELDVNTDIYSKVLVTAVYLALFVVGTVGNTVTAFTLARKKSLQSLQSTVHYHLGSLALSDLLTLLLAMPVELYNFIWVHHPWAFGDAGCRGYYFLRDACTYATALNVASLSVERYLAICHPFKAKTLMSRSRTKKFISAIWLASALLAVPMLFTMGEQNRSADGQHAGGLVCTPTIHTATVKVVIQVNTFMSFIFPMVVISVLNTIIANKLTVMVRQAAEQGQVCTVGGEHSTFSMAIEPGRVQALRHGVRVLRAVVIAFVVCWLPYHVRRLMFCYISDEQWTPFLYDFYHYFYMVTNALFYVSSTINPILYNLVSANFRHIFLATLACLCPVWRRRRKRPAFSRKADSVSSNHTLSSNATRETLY

IC50 [1] [nM]	Ki [2] [nM]	Binder
14.9		KPRRPYIL (not fully specified; N-methylated Pro7-Arg8 bond, Tle12; DOTA(In) at Lys6) [DOTA(In)-NT-20.3]
2.2	0.16	KPRRPYIL (NT(6-13) analogue, N-methylated Pro7-Arg8 bond, Tle12) [NT-20.3]
7		KPRRPYIL (not fully specified; N-methylated Pro7-Arg8 bond, Tle12; DOTA(Y) at Lys6) [DOTA(Y)-NT-20.3]
13.9		KPRRPYIL (not fully specified; N-methylated Pro7-Arg8 bond, Tle12; DOTA(Ga) at Lys6) [DOTA(Ga)-NT-20.3]
15.9	2.24	KPRRPYIL (not fully specified; N-methylated Pro7-Arg8 bond, Tle12; DTPA(In) at Lys6) [DTPA(In)-NT-20.3]
